# Experimental data as given in article PMC2824762, “Analysis of the role of PCNA-DNA contacts during clamp loading” (BMC Structural Biology, 2010).
# B1: DNA-30 (dsDNA)
# DNA 1: GAGCATTCAAGGACTTAGGTCTGTATTTATCTACCCACAA
# DNA 2: TTGTGGGTAGATAAATACAGACCTAAGTCC
# B2: S. cerevisiae Proliferating Cell Nuclear Antigen (PCNA), wild type (natural protein)
# chain: MLEAKFEEASLFKRIIDGFKDCVQLVNFQCKEDGIIAQAVDDSRVLLVSLEIGVEAFQEYRCDHPVTLGMDLTSLSKILRCGNNTDTLTLIADNTPDSIILLFEDTKKDRIAEYSLKLMDIDADFLKIEELQYDSTLSLPSSEFSKIVRDLSQLSDSINIMITKETIKFVADGDIGSGSVIIKPFVDMEHPETSIKLEMDQPVDLTFGAKYLLDIIKGSSLSDRVGIRLSSEAPALFQFDLKSGFLQFFLAPKFNDEE
# notes: PCNA, S. cerevisiae; The subunit-with-subunit row from the single-chain PCNA structure is also written on this molecule; also called wild-type PCNA; yeast PCNA; source: E. coli BL21(DE3), purified (HisTrap FF, PreScission protease, HiTrap Q HP); not shown: His6, N-terminal, cleaved
# B3: DNA-13 (dsDNA)
# DNA 1: GAGCATTCAAGGACTTAGGTCTG
# DNA 2: CAGACCTAAGTCC
# B4: crystallization primer-template DNA (dsDNA)
# DNA 1: TTTTATACGATGGG
# DNA 2: CCCATCGTAT
# What was measured:
# [1] = target: T1, RFC (Replication Factor C clamp loader);PCNA wild-type (Saccharomyces cerevisiae;Saccharomyces …, UniProt P38630;P40348;P38629;P40339;P38251;P15873 1-861;1-353;2-340;1-323;1-354;1-258, |); assay: fluorescence anisotropy; RFC titrated; 1 uM PCNA, 1 mM ATPgS, 10 mM MgCl2; Anisotropy: 30 mM Tris pH 7.5, 200 mM NaCl, 2 mM DTT, 1 mM ATPgS, 10 mM MgCl2, 100 nM TAMRA-DNA, 1 uM PCNA, 25 C. Crystals: 100 mM Na acetate pH 4.6, 100 mM NaCl, 14% PEG 4K, 20 C; settings: protein: recombinant;recombinant; tags: ;N-terminal 6-His, PreScission-cleaved; copies: 1;1;1;1;1;3; label: TAMRA at 5' end of template strand; 5' overhang 10 nt on template (3' recessed primer), 30 bp duplex
# [2] = target: T2, RFC (Replication Factor C clamp loader);PCNA K20A/K77A/R80A/R149A (Saccharomyces cerevisiae;Saccharomyces …, UniProt P38630;P40348;P38629;P40339;P38251;P15873 1-861;1-353;2-340;1-323;1-354;1-258, |K20A;K77A;R80A;R149A); assay: fluorescence anisotropy; RFC titrated; 1 uM mutant PCNA, 1 mM ATPgS, 10 mM MgCl2; Anisotropy: 30 mM Tris pH 7.5, 200 mM NaCl, 2 mM DTT, 1 mM ATPgS, 10 mM MgCl2, 100 nM TAMRA-DNA, 1 uM PCNA, 25 C. Crystals: 100 mM Na acetate pH 4.6, 100 mM NaCl, 14% PEG 4K, 20 C; settings: protein: recombinant;recombinant; tags: ;N-terminal 6-His, PreScission-cleaved; copies: 1;1;1;1;1;3; label: TAMRA at 5' end of template strand; 5' overhang 10 nt on template (3' recessed primer), 30 bp duplex
# [3] = target: the molecule itself; assay: crystal structure; single-chain PCNA (three subunits joined on one chain) with a 10-base pair DNA; hanging drop, 100 mM Na acetate pH 4.6, 100 mM NaCl, 14% PEG 4K, 20°C; space group P2(1)2(1)2(1); 3.0 Å
# [4] = target: T1, RFC (Replication Factor C clamp …); assay: fluorescence anisotropy; RFC titrated; 1 uM PCNA, 1 mM ATPgS, 10 mM MgCl2; Kd only in figure; Anisotropy: 30 mM Tris pH 7.5, 200 mM NaCl, 2 mM DTT, 1 mM ATPgS, 10 mM MgCl2, 100 nM TAMRA-DNA, 1 uM PCNA, 25 C. Crystals: 100 mM Na acetate pH 4.6, 100 mM NaCl, 14% PEG 4K, 20 C; settings: protein: recombinant;recombinant; tags: ;N-terminal 6-His, PreScission-cleaved; copies: 1;1;1;1;1;3; label: TAMRA at 5' end of template strand; 5' overhang 10 nt on template (3' recessed primer), 13 bp duplex
# [5] = target: T2, RFC (Replication Factor C clamp …); assay: fluorescence anisotropy; RFC titrated; 1 uM mutant PCNA, 1 mM ATPgS, 10 mM MgCl2; affinity changes little vs wild-type PCNA; Kd only in figure; Anisotropy: 30 mM Tris pH 7.5, 200 mM NaCl, 2 mM DTT, 1 mM ATPgS, 10 mM MgCl2, 100 nM TAMRA-DNA, 1 uM PCNA, 25 C. Crystals: 100 mM Na acetate pH 4.6, 100 mM NaCl, 14% PEG 4K, 20 C; settings: protein: recombinant;recombinant; tags: ;N-terminal 6-His, PreScission-cleaved; copies: 1;1;1;1;1;3; label: TAMRA at 5' end of template strand; 5' overhang 10 nt on template (3' recessed primer), 13 bp duplex
# [6] = target: single-chain PCNA (three fused PCNA subunits) (Saccharomyces cerevisiae, UniProt P15873;P15873;P15873 1-257;2-257;2-258, R110S;Y114S); assay: X-ray crystallography; 3.0 A; DNA tilted ~40 deg, partly disordered, refined as rigid body; pH 4.6; Anisotropy: 30 mM Tris pH 7.5, 200 mM NaCl, 2 mM DTT, 1 mM ATPgS, 10 mM MgCl2, 100 nM TAMRA-DNA, 1 uM PCNA, 25 C. Crystals: 100 mM Na acetate pH 4.6, 100 mM NaCl, 14% PEG 4K, 20 C; settings: protein: recombinant; tags: N-terminal 6-His, PreScission-cleavable; copies: 1;1;1; label: Cy5 at 5' end of primer strand; 5' overhang 4 nt on template, 10 bp duplex
# Chain of single-chain PCNA (three fused PCNA subunits) (P15873 2-257 R110S/Y114S, one chain of several): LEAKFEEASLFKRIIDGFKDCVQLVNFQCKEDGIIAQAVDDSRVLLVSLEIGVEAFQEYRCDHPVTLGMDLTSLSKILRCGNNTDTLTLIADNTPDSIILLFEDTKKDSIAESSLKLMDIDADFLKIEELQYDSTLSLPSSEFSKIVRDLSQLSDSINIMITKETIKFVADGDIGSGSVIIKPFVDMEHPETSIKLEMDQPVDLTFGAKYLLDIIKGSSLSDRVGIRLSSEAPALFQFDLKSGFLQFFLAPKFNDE
binder,measurement,setting,value
B1,Kd,[1],~100 nM
same,binding signal,[2],~5 fold weaker Kd than with wild-type PCNA (nearly 5)
B2,stoichiometry N,[3],3
B3,binding result,[4],binds
same,binding result,[5],binds
B4,binding result,[6],binds
